Laboratory results: patent US20230312672A1 (published 2023)

Biological target: T1, CD20 peptide on HLA-A*02:01 (human)
T1 peptide: SLFLGILSV
Test: multimer staining

B1: TCR 79B2 (TCR, V domains shown)
Valpha: GEQVEQLPSILRVQEGSSASINCSYEDSASNYFPWYKQEPGENPKLIIDIRSNMERKQIQELIVLLDKKAKRFSLHITDTQPGDSAMYFCAASANTGANTGKLTFGHGTILRVHP
Vbeta: ETAVFQTPNYHVTQVGNEVSFNCKQTLGHDTMYWYKQDSKKLLKIMFSYNNKQLIVNETVPRRFSPQSSDKAHLNLRIKSVEPEDSAVYLCASSWGLGSYEQYFGPGTRLTVL
  binding result: recognises
